We go through 14 substances from US6734169B2, “Apolipoprotein A-I agonists and their use to treat dyslipidemic disorders” (priority 1997, dated 2004).

Data set [1] can be described thus: Circular dichroism: degree of helicity. Particulars: for He (%) TFE / He (%) free / He (%) mics / He (%) SUVs: percent helicity, 37° C.; for He (%) TFE: 5 μM peptide, 90% vol TFE; for He (%) free: unbound peptide, 5 μM in 5 mM phosphate buffer, pH 7.4; for He (%) mics: peptide-micelle complexes (1-myristoyl-2-hydroxy-sn-glycero-3-phosphatidyl choline, Ri=100); for He (%) SUVs: peptide-SUV complexes (20:1 EPC:Chol., Ri=50). The data set is classed as physicochemical. The method, then: Far UV circular dichroism spectra were recorded between 190 and 260 nm (in 0.5 nm or 0.2 nm increments) with a AVIV62DS spectrometer (AVIV Associates, Lakewood, N.J., USA) equipped with a thermoelectric cell holder and sample changer. The instrument was calibrated with (+)-10-[…]. Between one and three scans were collected for each sample, using 10 cm, 5 cm, 1 cm and 0.1 cm path length quartz Suprasil cells, respectively, for peptide concentrations of 10^−7 M to 10^−4 M. The bandwidth was fixed at 1.5 nm and the scan speed to 1s per wavelength step. The reported data are the mean of at least 2 or 3 independent measurements.
After background subtraction, spectra were converted to molar ellipticity (θ) per residue in […]. The peptide concentration was determined by amino acid analysis and also by absorption spectrometry on a Perkin Elmer Lambda 17 UV/Visible spectrophotometer when the peptide contained a chromophore (tryptophan, dansyl, naphthylalanine).
CD spectra were obtained with free, unbound peptide (5 μM in 5 mM phosphate buffer, pH 7.4); with peptide-SUV complexes (20:1 EPC:Chol., Ri=50); with peptide-micelle complexes (1-myristoyl-2-hydroxy-sn-glycero-3-phosphatidyl choline, Ri=100); and with free, unbound peptide in the presence of 2,2,2-trifluoroethanol (TFE) (5 μM peptide, 90% vol TFE).
The SUVs were obtained by dispersing the lipids (10 mM, 20:1 EPC:Chol., Avanti Polar Lipids, AL) in phosphate buffer (5 mM, pH 7.4) with bubbling N2 for 5 min., followed by sonication (1.5 hr.) in a bath sonicator. The homogeneity of the preparation was checked by FPLC.
The micelles were obtained by dispersing the lipid (6 mM 1-myristoyl-2-hydroxy-sn-glycero-3-phosphatidyl choline, Avanti Polar Lipids, AL) in phosphate buffer (5 mM, pH 7.4) with bubbling N2 for 5 min., followed by vortexing.
To obtain the peptide-SUV complexes, SUVs were added to the peptide (5 μM in 5 mM phosphate buffer, pH 7.4) at a phospholipid-peptide molar ratio (Ri) of […].
To obtain the peptide-micelle complexes, micelles were added to the peptide (5 μM in 5 mM phosphate buffer, pH 7.4) at a Ri of 100.
All spectra were recorded at 37° C. The stability of peptide 210 (SEQ ID NO:210) as a function of temperature (both free in buffer and in micelles) was determined by recording spectra at a series of different temperatures.
The degree of helicity of the peptides in the various conditions was determined from the mean residue ellipticity at 222 nm (Chen et al., 1974, Biochemistry 13:3350-3359) or by comparing the CD spectra obtained to reference spectra available on databases (16 helical reference spectra from Provencher & Glockner, 1981, Biochemistry 20:33-37; denatured protein reference spectra from Venyaminov et al., 1993, Anal. Biochem. 214:17-24) using the CONTIN curve-fitting algorithm version 2DP, CD-1 pack (August 1982) (Provencher, 1982, Comput. Phys. Commun. 27:213-227, 229-242). Acceptable fit was determined using the statistical analysis methodology provided by the CONTIN algorithm. The error of all methods was ±5% helicity.
A general note: Circular dichroism is the unequal absorption of left and right circularly polarised light.

A short description of data set [2]: Lipid binding by fluorescence spectroscopy. Particulars: for I/Io: peptide 2 μM, 37° C. The method, then: The lipid binding properties of the peptides synthesized in Section 6, supra, were tested by fluorescence measurements with labeled peptides, in the present case tryptophan (Trp or W) or naphthylalanine (Nal). The fluorescence spectra were recorded on a Fluoromax from Spex (Jobin-Yvon) equipped with a Xenon lamp of 150 W, two monochromators (excitation and emission), a photomultiplier R-928 for detection sensitive in the red up to 850 nm and a thermoelectric magnetic stirred cell holder. Quartz Suprasil cuvettes were used for measurements in the micromolar concentration range. A device of variable slits (from 0.4 to 5 nm) allows modulation of the incident and emitted intensities according to the concentration of peptide used. The reported values are in general the average of between 2 to 4 spectra. The peptide concentration is determined by absorption spectrometry on a Philips PU 8800 using the absorption band of the Trp (∈280 nm=5,550 M^−1 cm^−1 in Tris buffer) or the Nal (∈224 nm=92,770 M^−1 cm^−1 in methanol).
Fluorescence spectra of the peptides were recorded between 290 nm and 450 nm in Tris-HCl buffer (20 mM, pH=7.5), in the presence and absence of lipidic vesicles. The small unilamellar vesicles were formed after rehydration in buffer of the lyophilized phospholipids, dispersion and tip sonification under a N2 stream. The lipids used were either Egg PC/Chol. (20:1) or POPC/Chol. (20:1). The spectra were recorded at a peptide concentration of 2 μM and at a temperature of 37° C. The fluorescence reference standard in the case of Trp was N-acetyltryptophanylamide (NATA).
Lipid binding studies were done through progressive lipidic vesicle addition to the peptide in solution at 2 μM (slits:5 nm in excitation and 1.5 nm in emission). Dilution effects were taken into account for the fluorescence intensity determination. The lipid concentrations were varied from 10 to 600 μM and the molar ratio of lipid to peptide (Ri) was varied from 5 to 300. The wavelength of excitation was set at 280 nm for both Trp and Nal.
The data were directly recorded and treated by an IBM-PC linked to the spectrofluorimeter through the DM3000F software from Spex. The spectra were corrected by substraction of the solvent contribution and by application of a coefficient given by the constructor taking into account the variation of the photomultiplier response versus the wavelength.
The fluorescence spectra of the peptides were characterized by the wavelength at their maximum of fluorescence emission and by their quantum yield compared to NATA in the case of peptides labeled with a tryptophan. The process of binding to lipids was analyzed by calculating the shift of the wavelength at the maximum of fluorescence emission, (λmax), and the variation of the relative fluorescence intensity of emission versus the lipid concentration. The relative fluorescence intensity is defined as the following ratio: (I-I0)λmax/I0λmax. I and I0 are both measured at the (λmax) corresponding to the initial free state of the peptide i.e., without lipids. I is the intensity at a defined lipid to peptide ratio and I0 is the same parameter measured in absence of lipids. The absence of these variations is relevant to the absence of interactions of the peptides with the lipids.

Setting [3] is: EPC/Chol (20:1) small unilamellar vesicles.

Square brackets hold non-standard residues; d marks the D form. Primed or numbered codes have the meaning given here. Ends that are not written are not given here. Nal″ = Z is Nal (naphthylalanine; Nal = Z in the sequences is Nal; Aib = CC(C)(N)C(=O)O

Take .klkgklaellenllerfldlvp [compound 107]: the “He (%) TFE” value in data set [1] turned out to be 77%.
In the case of “EWLEAFYKKVLEKLKELF* (Ac-EWLEAFYKKVLEKLKELF-NH2) [compound 239, reference compound]”, in data set [1], the “He (%) free” value worked out at 44% and the “He (%) mics” value is given as 49%.
Take GVLELFENLLERLLDALQKKLK [compound 145]: in data set [1], the “He (%) TFE” value amounted to 58%, the “He (%) free” value stood at 55% and the “He (%) mics” value is 51%.
On to PVLDLFRELLEELKQKLK [peptide 210], for which the “stability of the α-helical structure as a function of temperature” value in data set [1] (temperature range of 5°-45° C., data not shown) is on record as “completely stable”.
Turning to “PVLDLFRELLNELLEAZKQKLK (PVLDLFRELLNELLEA[Nal″]KQKLK) [peptide 10]”, in data set [1], the “He (%) TFE” value was 71%, the “He (%) free” value was found to be 60%, the “He (%) SUVs” value turned out to be 70% and the “He (%) mics” value was found to be 87%.
Take “PVLDLFRELLNELZEALKQKLK (PVLDLFRELLNEL[Nal]EALKQKLK) [compound 27]”: in data set [1], the “He (%) TFE” value was 81%, the “He (%) free” value was determined as 72%, the “He (%) SUVs” value was 82% and the “He (%) mics” value was found to be 92%.
Turning to “PVLDLFRELWEELKQKLK* (Ac-PVLDLFRELWEELKQKLK-NH2) [peptide 199]”, the “lipid binding (burying of the tryptophan, fluorescence intensity exaltation)” value in data set [2] (setting [3]) is “binds very effectively”. For the same substance, the “lipid to peptide molar ratio at which the burying of the tryptophan residue is maximal” value in data set [2] (setting [3]) is “about 100”. The I/Io in data set [2] (Lipid:Peptide Molar Ratio (Ri) 0) is recorded as 0; in data set [2] (Ri 5), 8; in data set [2] (Ri 10), 8; in data set [2] (Ri 30) it was 18; in data set [2] (Ri 60), 22; in data set [2] (Ri 100) it was 27. The I/Io in data set [2] (Ri 200) came out at 41. The “λmax (nm)” value is 344 nm in data set [2] (Ri 5); 339 nm in data set [2] (Ri 10); 328 nm in data set [2] (Ri 30); 326 nm in data set [2] (Ri 100); 325 nm in data set [2] (Ri 200); 348 nm in data set [2] (maximum of tryptophan fluorescence emission, Ri 0 (in buffer, no lipid), 2 μM).
Regarding “PVLDLFRWLLNEXLEALKQKLK (PVLDLFRWLLNE[Aib]LEALKQKLK) [compound 108]”, the “He (%) SUVs” value in data set [1] is recorded as 54%.
Consider “PVLDZFRELLNELLEALKQKLK (PVLD[Nal]FRELLNELLEALKQKLK) [compound 34]”, for which, in data set [1], the “He (%) TFE” value is recorded as 62%, the “He (%) free” value is reported as 58%, the “He (%) SUVs” value stood at 68% and the “He (%) mics” value worked out at 67%.
For the substance “pVLELFENLLERLLDALQKKLK ([dP]VLELFENLLERLLDALQKKLK) [compound 144]”, in data set [1], the “He (%) TFE” value is 95%, the “He (%) free” value was found to be 89% and the “He (%) mics” value is reported as 88%.
Turning to “pllellkellqellealkqklk ([dP][dL][dL][dE][dL][dL][dK][dE][dL][dL][dQ][dE][dL][dL][dE][dA][dL][dK][dQ][dK][dL][dK]) [compound 87]”, in data set [1], the “He (%) TFE” value came to 100% and the “He (%) free” value came out at 100%.
“pvldefreklneXlealkqklk ([dP][dV][dL][dD][dE][dF][dR][dE][dK][dL][dN][dE][Aib][dL][dE][dA][dL][dK][dQ][dK][dL][dK]) [compound 44]”: in data set [1], the “He (%) free” value stood at 20% and the “He (%) mics” value was found to be 86%.
“pvldlfrellneXlealkqklk ([dP][dV][dL][dD][dL][dF][dR][dE][dL][dL][dN][dE][Aib][dL][dE][dA][dL][dK][dQ][dK][dL][dK]) [compound 96]”: in data set [1], the “He (%) TFE” value worked out at 81%, the “He (%) free” value came out at 52%, the “He (%) SUVs” value was 63% and the “He (%) mics” value stood at 85%.
For the substance pvldlfrellnellealkqklk [compound 100], in data set [1], the “He (%) TFE” value is on record as 98%, the “He (%) free” value is recorded as 83% and the “He (%) mics” value came to 92%.
